Experimental data from patent US20260176254A1, “INHIBITORS OF PROSTATE SPECIFIC MEMBRANE ANTIGEN AND USE THEREOF” (SHANGHAI SINOTAU BIOTECH. CO., LTD, priority 2023, published 2026).

Key:
Set-up in all cases: species or system mice
[1] = system: LnCAP CDX xenograft tumor; assay: Tissue biodistribution in LnCAP tumor mouse model; conditions: male, SCID, in vivo, iv
Source text: (§1) LnCAP and 22RV1 CDX xenograft tumor models were generated by inoculating 5×10^6 cells/site subcutaneously in male SCID or nude mice (Vital River), respectively. Animals were housed according to IACUC guidance and had accessed to food and water ad libitium. Animals were used for biodistribution study when the tumor dimensions reached around 0.2-0.3 cm^3. […] At each tome point, animals were sacrificed and tissues were collected, weighted, and subjected to radioactivity measurements using gamma counter. Radioactivity in the tissues was presented in % ID/g (percent of injected dose per gram).

[2] = Tissue biodistribution in LnCAP tumor mouse model; conditions: male, SCID, in vivo, iv, total radioactivity
Source text: as §1

[3] = system: 22RV1 CDX xenograft tumor; assay: Tissue biodistribution in 22Rv1 tumor mouse model; conditions: male, nude, in vivo, iv
Source text: as §1

[4] = Tissue biodistribution in 22Rv1 tumor mouse model; conditions: male, nude, in vivo, iv, total radioactivity
Source text: as §1

[5] = T/NT ratio Tumor/Salivary Gland
[6] = Tissue biodistribution: Salivary Gland

## O=C(O)CN1CCN(CC(=O)O)CCN(CC(=O)NC23CCC(Nc4c(N[C@@H](Cc5c6ccccc6cc6ccccc56)C(=O)NCCCC[C@H](NC(=O)N[C@@H](CNC(=O)C(=O)O)C(=O)O)C(=O)O)c(=O)c4=O)(CC2)CC3)CCN(CC(=O)O)CC1 [[^177Lu]Lu-E8, metal not drawn]
[1]
  T/NT ratio Tumor/Bone: 169.77
  T/NT ratio Tumor/Salivary Gland: 422.38
[2]
  tissue uptake dose at 2 h: 16.4 ± 1.14 %ID
  tissue uptake dose at 6 h: 4.69 ± 0.79 %ID
  tissue uptake dose at 24 h: 3.21 ± 2.01 %ID
  tissue uptake dose at 72 h: 0.99 ± 0.2 %ID
  tissue uptake dose at 168 h: 0.91 ± 0.03 %ID
[2]; T/NT ratio Tumor/Bone
  tissue to tissue ratio: 183
[2]; [5]
  tissue to tissue ratio: 220
[2]; Tissue biodistribution: Blood
  tissue uptake at 2 h: 0.87 ± 0.21 %ID/g
  tissue uptake at 6 h: 0.16 ± 0.04 %ID/g
  tissue uptake at 24 h: 0.03 ± 0.01 %ID/g
  tissue uptake at 72 h: 0.03 ± 0.01 %ID/g
  tissue uptake at 168 h: 0.03 ± 0.01 %ID/g
[2]; Tissue biodistribution: Bone
  tissue uptake at 2 h: 0.74 ± 0.16 %ID/g
  tissue uptake at 6 h: 0.33 ± 0.11 %ID/g
  tissue uptake at 24 h: 0.19 ± 0.01 %ID/g
  tissue uptake at 72 h: 0.22 ± 0.02 %ID/g
  tissue uptake at 168 h: 0.26 ± 0.04 %ID/g
[2]; Tissue biodistribution: Gland
  tissue uptake at 2 h: 1.96 ± 0.74 %ID/g
  tissue uptake at 6 h: 0.51 ± 0.1 %ID/g
  tissue uptake at 24 h: 0.18 ± 0.04 %ID/g
  tissue uptake at 72 h: 0.11 ± 0.01 %ID/g
  tissue uptake at 168 h: 0.1 %ID/g
[2]; Tissue biodistribution: Heart
  tissue uptake at 2 h: 1 ± 0.4 %ID/g
  tissue uptake at 6 h: 0.26 ± 0.13 %ID/g
  tissue uptake at 24 h: 0.11 %ID/g
  tissue uptake at 72 h: 0.09 %ID/g
  tissue uptake at 168 h: 0.11 %ID/g
[2]; Tissue biodistribution: Kidney
  tissue uptake at 2 h: 133 ± 12.3 %ID/g
  tissue uptake at 6 h: 122 ± 20.9 %ID/g
  tissue uptake at 24 h: 15.7 ± 4.09 %ID/g
  tissue uptake at 72 h: 1.28 ± 0.08 %ID/g
  tissue uptake at 168 h: 0.69 ± 0.32 %ID/g
[2]; Tissue biodistribution: Liver
  tissue uptake at 2 h: 0.58 ± 0.17 %ID/g
  tissue uptake at 6 h: 0.33 ± 0.05 %ID/g
  tissue uptake at 24 h: 0.23 ± 0.03 %ID/g
  tissue uptake at 72 h: 0.18 ± 0.02 %ID/g
  tissue uptake at 168 h: 0.15 ± 0.03 %ID/g
[2]; Tissue biodistribution: Lung
  tissue uptake at 2 h: 2.97 ± 0.89 %ID/g
  tissue uptake at 6 h: 0.75 ± 0.14 %ID/g
  tissue uptake at 24 h: 0.18 ± 0.03 %ID/g
  tissue uptake at 72 h: 0.08 ± 0.01 %ID/g
  tissue uptake at 168 h: 0.1 ± 0.04 %ID/g
[2]; Tissue biodistribution: Muscle
  tissue uptake at 2 h: 0.46 ± 0.09 %ID/g
  tissue uptake at 6 h: 0.14 ± 0.04 %ID/g
  tissue uptake at 24 h: 0.04 ± 0.01 %ID/g
  tissue uptake at 72 h: 0.03 %ID/g
  tissue uptake at 168 h: 0.04 ± 0.01 %ID/g
[2]; Tissue biodistribution: Spleen
  tissue uptake at 2 h: 3.87 ± 1.15 %ID/g
  tissue uptake at 6 h: 1.05 ± 0.15 %ID/g
  tissue uptake at 24 h: 0.39 ± 0.14 %ID/g
  tissue uptake at 72 h: 0.31 ± 0.08 %ID/g
  tissue uptake at 168 h: 0.43 ± 0.13 %ID/g
[2]; Tissue biodistribution: Tumor
  tissue uptake at 2 h: 30.8 ± 6.34 %ID/g
  tissue uptake at 6 h: 35.7 ± 5.05 %ID/g
  tissue uptake at 24 h: 37.9 ± 8.46 %ID/g
  tissue uptake at 72 h: 48.2 ± 10 %ID/g
  tissue uptake at 168 h: 44.3 ± 8.77 %ID/g
[2]; Tumor/Blood
  tissue to tissue ratio at 2 h: 38.4 ± 18.7
  tissue to tissue ratio at 6 h: 237 ± 57.6
  tissue to tissue ratio at 24 h: 1150 ± 312
  tissue to tissue ratio at 72 h: 1690 ± 343
  tissue to tissue ratio at 168 h: 1630 ± 208
[2]; Tumor/Bone
  tissue to tissue ratio at 2 h: 44.7 ± 20.4
  tissue to tissue ratio at 6 h: 117 ± 45.7
  tissue to tissue ratio at 24 h: 200 ± 55.6
  tissue to tissue ratio at 72 h: 223 ± 43.2
  tissue to tissue ratio at 168 h: 170 ± 19.3
[2]; Tumor/Kidney
  tissue to tissue ratio at 2 h: 0.24 ± 0.07
  tissue to tissue ratio at 6 h: 0.3 ± 0.05
  tissue to tissue ratio at 24 h: 2.59 ± 1.05
  tissue to tissue ratio at 72 h: 37.5 ± 6.4
  tissue to tissue ratio at 168 h: 70.9 ± 22.8
[3]
  T/NT ratio Tumor/Blood: 497.77
  T/NT ratio Tumor/Salivary Gland: 183.55
[4]
  tissue uptake dose at 2 h: 8.22 ± 0.38 %ID
  tissue uptake dose at 6 h: 5.13 ± 0.24 %ID
  tissue uptake dose at 24 h: 2.13 ± 0.07 %ID
  tissue uptake dose at 72 h: 0.81 ± 0.01 %ID
  tissue uptake dose at 168 h: 1.34 ± 0.01 %ID
[4]; T/NT ratio Tumor/Blood
  tissue to tissue ratio: 570
[4]; [5]
  tissue to tissue ratio: 201
[4]; Tissue biodistribution: Blood
  tissue uptake at 2 h: 0.4 ± 0.14 %ID/g
  tissue uptake at 6 h: 0.08 ± 0.04 %ID/g
  tissue uptake at 24 h: 0.03 %ID/g
  tissue uptake at 72 h: 0.02 %ID/g
  tissue uptake at 168 h: 0.02 ± 0.01 %ID/g
[4]; Tissue biodistribution: Bone
  tissue uptake at 2 h: 0.47 ± 0.09 %ID/g
  tissue uptake at 6 h: 0.26 ± 0.03 %ID/g
  tissue uptake at 24 h: 0.26 ± 0.04 %ID/g
  tissue uptake at 72 h: 0.34 ± 0.01 %ID/g
  tissue uptake at 168 h: 0.43 ± 0.1 %ID/g
[4]; Tissue biodistribution: Heart
  tissue uptake at 2 h: 0.57 ± 0.28 %ID/g
  tissue uptake at 6 h: 0.1 ± 0.01 %ID/g
  tissue uptake at 24 h: 0.07 %ID/g
  tissue uptake at 72 h: 0.07 ± 0.01 %ID/g
  tissue uptake at 168 h: 0.08 ± 0.01 %ID/g
[4]; Tissue biodistribution: Kidney
  tissue uptake at 2 h: 136 ± 16.7 %ID/g
  tissue uptake at 6 h: 56.5 ± 18.9 %ID/g
  tissue uptake at 24 h: 5.86 ± 1.87 %ID/g
  tissue uptake at 72 h: 0.99 ± 0.04 %ID/g
  tissue uptake at 168 h: 0.26 ± 0.01 %ID/g
[4]; Tissue biodistribution: Liver
  tissue uptake at 2 h: 0.34 ± 0.07 %ID/g
  tissue uptake at 6 h: 0.19 ± 0.03 %ID/g
  tissue uptake at 24 h: 0.18 ± 0.05 %ID/g
  tissue uptake at 72 h: 0.22 ± 0.01 %ID/g
  tissue uptake at 168 h: 0.23 ± 0.08 %ID/g
[4]; Tissue biodistribution: Lung
  tissue uptake at 2 h: 1.14 ± 0.31 %ID/g
  tissue uptake at 6 h: 0.32 ± 0.11 %ID/g
  tissue uptake at 24 h: 0.12 ± 0.02 %ID/g
  tissue uptake at 72 h: 0.09 ± 0.01 %ID/g
  tissue uptake at 168 h: 0.07 ± 0.02 %ID/g
[4]; Tissue biodistribution: Muscle
  tissue uptake at 2 h: 0.23 ± 0.03 %ID/g
  tissue uptake at 6 h: 0.08 ± 0.01 %ID/g
  tissue uptake at 24 h: 0.03 %ID/g
  tissue uptake at 72 h: 0.02 %ID/g
  tissue uptake at 168 h: 0.03 ± 0.01 %ID/g
[4]; [6]
  tissue uptake at 2 h: 0.57 ± 0.19 %ID/g
  tissue uptake at 6 h: 0.2 ± 0.07 %ID/g
  tissue uptake at 24 h: 0.08 %ID/g
  tissue uptake at 72 h: 0.09 ± 0.01 %ID/g
  tissue uptake at 168 h: 0.06 ± 0.01 %ID/g
[4]; Tissue biodistribution: Spleen
  tissue uptake at 2 h: 6.44 ± 3.19 %ID/g
  tissue uptake at 6 h: 0.88 ± 0.26 %ID/g
  tissue uptake at 24 h: 0.28 ± 0.05 %ID/g
  tissue uptake at 72 h: 0.35 ± 0.01 %ID/g
  tissue uptake at 168 h: 0.39 ± 0.11 %ID/g
[4]; Tissue biodistribution: Tumor
  tissue uptake at 2 h: 19.7 ± 9.31 %ID/g
  tissue uptake at 6 h: 18.8 ± 1.68 %ID/g
  tissue uptake at 24 h: 22.7 ± 7.83 %ID/g
  tissue uptake at 72 h: 24.3 ± 1.92 %ID/g
  tissue uptake at 168 h: 11.9 ± 4.35 %ID/g
[4]; Tumor/Blood
  tissue to tissue ratio at 2 h: 62.7 ± 54.4
  tissue to tissue ratio at 6 h: 277 ± 98.9
  tissue to tissue ratio at 24 h: 754 ± 166
  tissue to tissue ratio at 72 h: 1120 ± 40
  tissue to tissue ratio at 168 h: 555 ± 353
[4]; Tumor/Bone
  tissue to tissue ratio at 2 h: 41.5 ± 19.5
  tissue to tissue ratio at 6 h: 73.6 ± 6.68
  tissue to tissue ratio at 24 h: 87.2 ± 16.1
  tissue to tissue ratio at 72 h: 72.1 ± 4.85
  tissue to tissue ratio at 168 h: 27.7 ± 7.2
[4]; Tumor/Kidney
  tissue to tissue ratio at 2 h: 0.15 ± 0.09
  tissue to tissue ratio at 6 h: 0.35 ± 0.11
  tissue to tissue ratio at 24 h: 3.97 ± 0.93
  tissue to tissue ratio at 72 h: 24.5 ± 2.46
  tissue to tissue ratio at 168 h: 45.6 ± 16.3
